Values quoted from earlier work as cited in patent US10464968B2, “Method for producing a composition for treating a tooth lesion” (CREDENTIS AG, priority 2012, dated 2019).
Where two headings read alike, the source gives them in different places. No end group written: not given here.

## QQRFEWEFEQQ [Example P11-4, self-assembling peptide of 11 amino acids]
Above pH 7.5
  phase state of aqueous solution: isotropic fluid
Below pH 3
  phase state of aqueous solution: nematic gel
Between about pH 5 and about pH 3
  phase state of aqueous solution: flocculate
Between about pH 7.5 and about pH 5
  phase state of aqueous solution: nematic fluid
